Where a chain is given by its changes, count along the chain named. In names and notes the source's numbering stands. Entries after “also recorded” stand apart in the source; their conditions may differ.
B1: Y548F: mutant cdc4 polypeptide (protein)
chain: MGSFPLAEFPLRDIPVPYSYRVSGGIASSGSVTALVTAAGTHRNSSTAKTVETEDGEEDIDEYQRKRAAGSGESTPERSDFKRVKHDNHKTLHPVNLQNTGAASVDNDGLHNLTDISNDAEKLLMSVDDGSAAPSTLSVNMGVASHNVAAPTTVNAATITGSDVSNNVNSATINNPMEEGALPLSPTASSPGTTTPLAKTTKTINNNNNIADLIESKDSIISPEYLSDEIFSAINNNLPHAYFKNLLFRLVANMDRSELSDLGTLIKDNLKRDLITSLPFEISLKIFNYLQFEDIINSLGVSQNWNKIIRKSTSLWKKLLISENFVSPKGFNSLNLKLSQKYPKLSQQDRLRLSFLENIFILKNWYNPKFVPQRTTLRGHMTSVITCLQFEDNYVITGADDKMIRVYDSINKKFLLQLSGHDGGVWALKYAHGGILVSGSTDRTVRVWDIKKGCCTHVFKGHNSTVRCLDIVEYKNIKYIVTGSRDNTLHVWKLPKESSVPDHGEEHDYPLVFHTPEENPYFVGVLRGHMASVRTVSGHGNIVVSGSFDNTLIVWDVAQMKCLYILSGHTDRIYSTIYDHERKRCISASMDTTIRIWDLENIWNNGECSYATNSASPCAKILGAMYTLQGHTALVGLLRLSDKFLVSAAADGSIRGWDANDYSRKFSYHHTNLSAITTFYVSDNILVSGSENQFNIYNLRSGKLVHANILKDADQIWSVNFKGKTLVAAVEKDGQSFLEILDFSKASKINYVSNPVNSSSSSLESISTSLGLTRTTIIP
B2: W717N: mutant cdc4 polypeptide (protein)
chain: B1 chain with F548Y, W717N
B3: R572A: mutant cdc4 polypeptide (protein)
chain: B1 chain with F548Y, R572A
B4: K402A: mutant cdc4 polypeptide (protein)
chain: B1 chain with K402A, F548Y
B5: R443A: mutant cdc4 polypeptide (protein)
chain: B1 chain with R443A, F548Y
B6: T441I/T465I: double mutant cdc4 polypeptide (protein)
chain: B1 chain with T441I, T465I, F548Y
B7: Y574F: mutant cdc4 polypeptide (protein)
chain: B1 chain with F548Y, Y574F

How the values were obtained:
cdc4Δ strain = experiment: plasmid shuffle assay: complementation of a cdc4Δ strain by CDC4 alleles; type: cell-based, yeast; settings: viability of cdc4Δ strain on 5-FOA, 2 days at 30° C.
Procedure: (§1) All mutants on a TRP1 ARS CEN plasmid were transformed into a cdc4Δ strain (MT 1259) containing a wildtype copy of CDC4 on a URA3 ARS CEN plasmid. Cells were plated on either Trp^−Ura^− or 5-FOA medium for 2 days at 30° C. Viable cells on 5-FOA were grown in Trp medium and transformed with either wild type GAL1-SIC1, GAL1-SIC T45A, or GAL1-SIC T33V on a LEU2 ARS CEN pasmid. Cells were then plated on Leu- Trp-plates containing either glucose or galactose and incubated for 2 days at 30° C.
(§2) Cdc4 functional assays. CDC4 mutant alleles were assessed for complementation of a cdc4A strain in a plasmid shuffle assay (Nash et al., 2001). Sensitivity to SIC1 dosage was determined by transformation with pMT837 (GAL1-SIC1) or pMT767 (GAL1-SIC1^T33V) and plating on glucose medium or galactose medium. For in vitro capture of phospho-Sic1 by Cdc4, 0.5 μg of bacterially-expressed ^HIS6Sic1 was phosphorylated with immobilized Cln2-Cdc28 kinase from baculovirus-infected Sf9 cells and then incubated with 1 μg of immobilized wild type or mutant Cdc4^263-744-GST-Skp1, at 4° C. for 1 hr, washed 4 times and visualized by anti-Sic1 immunoblot. For isoelectric focusing (IEF)-2D gel analyses, an evenly distributed pool of phospho-Sic1 isoforms was generated by combining different time points in a Sic1 phosphorylation reaction. 2.5 μg of the phospho-Sic1 pool was bound to 5 μg of immobilized wild type or mutant Cdc4^1-744-GST-Skp1. Captured isoforms were separated by denaturing IEF-2D gel electrophoresis using pH3-10NL Immobiline gel strips (Amersham) and visualized by anti-Sic1 immunoblot. Alternatively, the pool of phospho-Sic1 isoforms was incubated in solution with a ubiquitination reaction mix containing ATP, ubiquitin, yeast E1, Cdc34 and either wild type or mutant SCF^Cdc4 complex, composed of a 1:1 ratio of bacterial Cdc4-GST-Skp1 and insect cell-produced Cdc53-Rbx1, at 30° C. for 1 h as previously described (Nash et al., 2001).

[1] = tested on: cdc4Δ strain overexpressing SIC1; experiment: sensitivity to SIC1 dosage: GAL1-SIC1 overexpression in strains bearing CDC4 alleles; type: cell-based, yeast; settings: for gal Sic1T33V: GAL1-SIC1 T33V (partially stabilized Sic1); for gal Sic1T33V / gal Sic1T45A / gal Sic1 wt: galactose, 2 days at 30° C.; for gal Sic1T45A: GAL1-SIC1 T45A; for gal Sic1 wt: GAL1-SIC1 wild type; for viability / sensitivity to increased SIC1 dosage: Sic1 wt or stabilized Sic1(T33V) or Sic1(T45A) over-expressed under a galactose promoter
Procedure: (§3) Mutational analysis of the CPD binding surface. Mutants were tested in vitro by ability to bind phosphorylated Sic1 and then captured onto GST-Skp1/Cdc4 resin and detected with anti-sic1 antibody. Mutants were tested in vivo by ability to degrade GAL1-SIC1 or various phosphorylation mutants. Sites are as follows: 3=Thr 33, Thr 45, Ser 76; 4=Thr 5, Thr 33, Thr 45, Ser 76; 5=Thr 2, Thr 5, Thr 33, Thr 45, Ser 76; 6=Thr 2, Thr 5, Thr 33, Thr 45, Ser 69, Ser 76; 7=Thr 2, Thr 5, Thr 33, Thr 45, Ser 69, Ser 76, Ser 80. GAL1-SIC1 plasmids were transformed into a cdc4Δ strain containing a copy of CDC4 on a TRP1 ARS CEN plasmid. Strains were incubated for 2 days at 30° C.
as §1
Since the cell viability assay nay be masking subtle functional roles for the conserved Cdc4 residues, function was assayed in vivo under more stringent conditions in which Sic1 wt or the stabilized mutants, Sic1 (T33V) or Sic1(T45A) are over-expressed under a galactose promoter. This should amplify defects in cdc4 function. Under these conditions, Trp 717, Tyr 548 and the double mutant K404D/R443D are lethal showing that these residues are in fact important for functions
as §2

phospho-Sic1 = experiment: P-Sic1 pull down: in vitro capture of phospho-Sic1 on immobilized wild type or mutant Cdc4-GST-Skp1, anti-Sic1 immunoblot; type: binding, yeast; settings: Sic1 phosphorylated with Cln2-Cdc28, captured onto GST-Skp1/Cdc4 resin, anti-Sic1 detection
Procedure: as §3
Bacterially expressed His6-Sic1 was phosphorylated with Cln2-Cdc28 kinase purified from baculovirus infected Sf9 cells as described before (Nature paper). 1 ug of WT or mutant Cdc4-GST-Skp1, immoblized on GSH-Sepharose resin, was incubated with 0.5 ug phospho-Sic1 at 4 C for 1 h and washed 4 times. Captured complexes were resolved on SDS-PAGE and Sic1 visualized by anti-Sic1 Western blotting and ECL. For IEF-2D analysis, several Sic1 phosphorylation reactions were carried out for different time periods to obtain a spectrum of Sic1 that were phosphorylated at different numbers of its nine CDK sites. This pool of phospho-Sic1 (2.5 ug) was incubated with 5 μg of WT or mutant Cdc4-GST-Skp1 as described above. Different phosphorylation states of Sic1 were separated by denaturing isoelectric focusing (IEF)-2D gel electrophoresis and visualized by anti-Sic1 Western blotting and ECL. IEF was performed using pH 3-10NL Immobiline gel strips and IPGphore IEF system (Amersham pharmacia).
as §2

Molecule	shuffle (cdc4Δ strain)	gal Sic1T33V [1]	gal Sic1T45A [1]	gal Sic1 wt [1]	viability / sensitivity to increased SIC1 dosage [1]	P-Sic1 pull down (phospho-Sic1)	further results
B1	alive	dead	dead	alive	lethal	no bind	shuffle (cdc4Δ strain; listed as Tyr 548): fractional; shuffle (cdc4Δ strain; listed as Tyr548): did not cause loss of viability; gal Sic1T33V ([1]; listed as Tyr548): dosage sensitivity; P-Sic1 pull down (phospho-Sic1; listed as Tyr 548): compromised
B2	alive	dead	dead	alive	lethal	bind	shuffle (cdc4Δ strain; listed as Trp717): viable; gal Sic1T33V ([1]; listed as Trp717Asn): conferred sensitivity; P-Sic1 pull down (phospho-Sic1; listed as Trp717): fully competent; P-Sic1 pull down (phospho-Sic1; listed as Trp717Asn): did not overtly affect
B3	alive	dead	dead	alive		no bind	shuffle (cdc4Δ strain; listed as Arg572): same behavior; gal Sic1T33V ([1]; listed as Arg 572): same effect; P-Sic1 pull down (phospho-Sic1; listed as Arg572): inablity to bind
B4	alive	alive	dead	alive	indistinguishable from wild type	bind	shuffle (cdc4Δ strain; listed as Lys402Ala): viable; also recorded: indistinguishable from wild type; P-Sic1 pull down (phospho-Sic1; listed as Lys402Ala): fully competent; also recorded: indistinguishable from wild type
B5	alive	alive	dead	alive	indistinguishable from wild type	bind	shuffle (cdc4Δ strain; listed as Arg443Ala): viable; also recorded: indistinguishable from wild type; P-Sic1 pull down (phospho-Sic1; listed as Arg443Ala): fully competent; also recorded: indistinguishable from wild type
B6	viable					fully competent	
B7	alive	alive	dead	alive	indistinguishable from wild type	bind	shuffle (cdc4Δ strain; listed as Tyr574Ala): viable; shuffle (cdc4Δ strain; listed as Tyr574Phe): indistinguishable from wild type; P-Sic1 pull down (phospho-Sic1; listed as Tyr574Ala): fully competent; P-Sic1 pull down (phospho-Sic1; listed as Tyr574Phe): indistinguishable from wild type

From patent publication US20040171074A1, “Structures of substrate binding pockets of SCF complexes” (MOUNT SINAI HOSPITAL, priority 2002, published 2004)
